These results are taken from patent publication US20240317826A1 (ALBERT EINSTEIN COLLEGE OF MEDICINE, published 2024).

In the assay the target is T1, GST-CTD (C-terminal domain of HIV-1 integrase, aa 201-288, GST fusion) (HIV-1 (Hx3B), UniProt P04585 1348-1435).
T1 construct: domain: C-terminal (IN-CTD, aa 201-288 of integrase); also called IN-CTD; pGST-IN-CTD(aa 201-288); not shown: GST tag from pGEX3xPL vector
The experiment in a line: Alpha proximity competition, low salt: increasing INI1183-304 added to GST-CTD + biotinylated TAR RNA; displaced competitor is TAR RNA.

B1: His6-SUMO-INI1183-304 (other)
chain: PEVLVPIRLDMEIDGQKLRDAFTWNMNEKLMTPEMFSEILCDDLDLNPLTFVPAIASAIRQQIESYPTDSILEDQSDQRVIIKLNIHVGNISLVDQFEWDMSEKENSPEKFALKLCSELGLG
notes: range 183-304; also called 6His-SUMO-INI1183-304; Rpt1 (cartoon label); not shown: His6-SUMO (h6-smt3) tag from pET28a-h6-smt3
On to B1, for which the IC50 (commonly the point on the concentration scale where inhibition reaches its midpoint) was roughly 5 nM.
